The results in this text go back to publication PMC8509397.

Bounds are passed on as bounds.

The target of this test is T1, IFNγ cellular receptor (IFNGR1 and IFNGR2) on WISH cells (human (endogenous in WISH cells)) (UniProt P15260).
T1 sequence 1: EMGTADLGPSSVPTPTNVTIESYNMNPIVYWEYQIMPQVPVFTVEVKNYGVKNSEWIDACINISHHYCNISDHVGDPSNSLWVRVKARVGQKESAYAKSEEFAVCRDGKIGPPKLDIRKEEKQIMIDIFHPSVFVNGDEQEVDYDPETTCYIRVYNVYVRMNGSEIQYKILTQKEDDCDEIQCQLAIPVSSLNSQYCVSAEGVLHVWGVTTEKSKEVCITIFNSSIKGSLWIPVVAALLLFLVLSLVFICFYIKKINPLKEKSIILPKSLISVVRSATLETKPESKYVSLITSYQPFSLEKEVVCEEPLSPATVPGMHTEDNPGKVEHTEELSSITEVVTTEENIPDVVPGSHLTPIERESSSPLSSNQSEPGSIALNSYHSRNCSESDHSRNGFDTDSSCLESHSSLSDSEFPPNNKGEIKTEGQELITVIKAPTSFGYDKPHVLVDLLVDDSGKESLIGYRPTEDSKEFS
T1 sequence 2: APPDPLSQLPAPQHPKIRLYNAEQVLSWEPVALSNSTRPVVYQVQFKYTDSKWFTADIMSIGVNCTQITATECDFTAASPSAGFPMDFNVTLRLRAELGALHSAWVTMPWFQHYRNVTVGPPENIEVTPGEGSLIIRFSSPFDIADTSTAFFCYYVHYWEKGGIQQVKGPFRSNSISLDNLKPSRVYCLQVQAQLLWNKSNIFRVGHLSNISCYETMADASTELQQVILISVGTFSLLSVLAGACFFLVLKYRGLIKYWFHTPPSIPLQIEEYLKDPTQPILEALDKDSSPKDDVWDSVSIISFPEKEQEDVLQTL

Substance “recombinant interferon-gamma (IFNγ) (from UniProt P01579 24-161) (ligand)” yielded an antiproliferative activity of IFNγ (IDO induction, modified kynurenine bioassay) on WISH cells, 100 IU/mL IFNγ with LMWH (Fraxiparine): LMWH concentration that reduces the activity to 50% of control of 35 IU/mL and an inhibition of IDO induction by 100 IU/mL IFNγ on WISH cells with LMWH (Fraxiparine) 1.5 to 150 anti-Xa IU/mL; highest value at 150 IU/mL below 80%.
